Values joined by “and” are separate entries in the source; they are usually repeats but may differ in a detail not shown here. Identical values can stand only once. Non-standard residues stand in square brackets, D forms with d. No end group written: not given here. KLH = keyhole limpet hemocyanin; Ahx = NCCCCCC(=O)O
Assays:
[1] = target: T1, Recombinant human progastrin (human, UniProt P01350 22-101); test: cell-based or functional assay
T1 sequence: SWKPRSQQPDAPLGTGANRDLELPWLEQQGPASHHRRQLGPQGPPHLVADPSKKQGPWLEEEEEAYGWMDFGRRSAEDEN

[2] = target: T1, Recombinant human progastrin; test: cell-based or functional assay; remark: listed apart in the source
[3] = target: T1, Recombinant human progastrin; test: cell-based or functional assay; remark: listed apart in the source
[4] = target: T1, Recombinant human progastrin; test: SPR (Proteon), MAb captured on anti-mouse IgG, hPG injected
Description: To provide a more absolute quantification of affinity for the monoclonal antibodies, affinity constants were measured using the Proteon Technique (BioRad), according to Nahshol et al., 2008, Analytical Biochemistry 383:52-60, hereby incorporated by reference in its entirety. Briefly, an anti-mouse IgG antibody (50 μg/ml) was first coated on a sensor chip, making sure that the signal detected by the chip after injection of the antibody falls between 10,000 and 11,500 RU (response units). The murine monoclonal antibody to be tested was then injected (typical concentrations: 30 μg/ml). Sufficient binding of the antibody to be tested was determined based on a further signal of at least 500 RU on the sensor chip. A time-course of interaction between monoclonal anti-progastrin antibodies and progastrin was then measured by injecting varying concentrations of progastrin, for example 200, 100, 50, 25, and 12.5 nM, and the level of association detected. Typically, several channels are available to test multiple antibodies in parallel in a single experiment, making it possible to assay binding of test antibodies at varying concentrations of PG in parallel. Typically, one channel is reserved for a murine monoclonal antibody that is not specific to PG, as a control for non-specific binding, and another channel is injected with dilution buffer alone as a baseline for the background signal. Generally, no binding is detectable in the channels injected with non-specific murine antibody. Antibodies displaying a high level of association in this setting, which may result in saturation of the trapped monoclonal antibody by progastrin, can be tested against lower progastrin concentrations (50, 25, 12.5, 6.25 and 3.125 nM), allowing for a more refined measurement.
Affinity constants (KD) were calculated as the ratio between the dissociation constant (kd) and the association constant (ka). Experimental values were validated by analyzing the statistically relevant similarity between experimental curves based on binding measurements and theoretical profiles. The mathematical model used in the Proteon experiments to select whether experimental curves fit with the theoretical model was the Langmuir model, based on a 1:1 interaction between progastrin molecules and anti-progastrin monoclonal antibodies.

[5] = target: T1, Recombinant human progastrin; test: ELISA on 50 ng coated hPG, antibody titrated, OD 492 nm, n=2
Description: After blocking, the wells were washed three times and the primary antibody—the antibody to be assayed—added. For initial screening of fused splenocytes, 50 μL of culture supernatant from each culture to be assayed was added to each well in the plate. In assays performed on monoclonal antibodies, 100 μL of the test antibody in PBS and 0.1% Tween-20 was added to each well. Plates were then incubated for 2 hours at 22° C., after which the primary antibody solution was discarded and replaced, after a wash step (3×100 μL wash solution, as noted above), with blocking solution containing the secondary antibody, which binds the primary antibody and is coupled to an enzyme. The secondary antibody was a goat anti-mouse IgG (Fc) antibody coupled to horseradish peroxidase. […] The reaction was then stopped by adding 50 μL of 4N sulfuric acid and the amount of substrate catalyzed determined by measuring the optical density (O.D.) at 492 nm. […] Samples were scored as positive for anti-PG antibodies if the measured O.D. was between 0.2 and 1.5. […]
Relative affinity of exemplary monoclonal antibodies was measured using the ELISA method described above, in which wells were coated with a peptide solution containing 50 ng progastrin and then incubated in the presence of increasing concentrations of each monoclonal antibody as follows: […]

[6] = target: T2, Immunogen N2 = SWKPRSQQPDAPLG Ahx Cys KLH (human); test: ELISA of hybridoma supernatants
T2 construct: hPG residues 1 to 14 with linker, coupled to the KLH carrier; also called KLH-linked N-terminal peptide
T2 peptide: SWKPRSQQPDAPLG[Ahx]C-{KLH}

[7] = target: T1, Recombinant human progastrin; test: cell-based or functional assay; remark: listed apart in the source
[8] = target: T1, Recombinant human progastrin; test: competition ELISA: hPG captured by a C-terminal polyclonal antibody; MAb 3 titrated against 10 µg/ml biotinylated N-terminal anti-hPG polyclonal antibody; streptavidin-HRP, luminescence, n=2
Description: The ability of an anti-hPG monoclonal antibody to compete with an anti-hPG polyclonal antibody for binding to progastrin was determined using an ELISA with a “capture” anti-hPG antibody and a “detection” anti-hPG antibody. Anti-hPG MAb 3 was assayed as follows: 96-well plates were pre-coated with C-terminal progastrin polyclonal antibodies raised against a peptide consisting of residues 71 to 80 of hPG. The plates were then incubated with […] progastrin was incubated, followed by addition of 10 μg/ml biotinylated N-terminal anti-hPG polyclonal antibody, raised against a peptide consisting of the amino acid sequence of SEQ ID NO:25, and increasing concentrations of anti-hPG MAb 3 monoclonal antibody. Binding of the biotinylated N-terminal anti-hPG polyclonal antibody was detected by incubating the plates with streptavidin-HRP followed by OPD, according to standard protocols. Binding was measured by quantifying luminescence.

Binder	surviving SW 620 cells, % of control MAb-treated cells (cell numbers - T0) [1]	surviving LS 174T cells, % of control MAb-treated cells (cell numbers - T0) [2]	surviving HCT-116 cells, % of control MAb-treated cells (cell numbers - T0) [3]	Kd [4]	EC50 (read off the curve) [5] [ng/mL]	binding result [6]	viable LS174T cells (CellTiter 96 absorbance at 490 nm), % of control MAb; anti-hPG MAb 8 pre-incubated with 20-fold molar excess hPG [7]	IC50 (read off the curve) [8] [ng/mL]
Anti-hPG MAb 13 (antibody, V domains shown, Mouse IgG1, hybridoma 2C6C3C7, raised against immunogen C1; also called 2C6C3C7) VH: EVQLVESGGGLVQPGGSLKLSCAASGFIFSSYGMSWVRQSPDRRLELVASINTFGDRTYYPDSVKGRFTISRDNAKNTLYLQMTSLKSEDTAIYYCARGTGTYWGQGTTLTVSS VL: not shown	48 % of control	58 % of control	36 % of control	0.6 nM and 0.612 nM	–	–	–	–
Anti-hPG MAb 19 (antibody, V domains shown, Mouse IgG2, hybridoma 1B3B4F11, raised against immunogen N2; also called 1B3B4F11) VH: DVQLQESGPGLVKPSQSLSLTCTVTGYSITSDYAWNWIRQFPGNKLEWMGYISFSGYTSYNPSLKSRISVTRDTSRNQFFLQLTSVTTEDTATYYCAREVNYGDSYHFDYWGQGTIVTVSS VL: QLALTQSSSASFSLGASAKLTCTLSSQHRTYTIEWYQQQSLKPPKYVMEVKKDGSHSTGHGIPDRFSGSSSGADRYLSISNIQPEDEAIYICGVGDAIKGQSVFVFGGGTKVTVL	69 % of control	84.5 % of control	88 % of control	0.7 nM and 0.779 nM	–	–	–	–
Anti-hPG MAb 4 (antibody, V domains shown, Mouse IgG1, hybridoma 20D2C3G2, raised against immunogen N2; also called 20D2C3G2) VH: QVQLQQSGAELMKPGASVKISCKATGYTFSSSWIEWLKQRPGHGLEWIGEFLPGSGSTDYNEKFKGKATFTADTSSDTAYMLLSSLTSEDSAVYYCATDGNYDWFAYWGQGTLVTVSA VL: DLVMTQTPLSLPVSLGDQASISCRSSQSLVHSSGVTYLHWYLQKPGQSPKLLIYKVSNRFSGVPDRFSGSGSGTDFTLKISRVEAEDLGVYFCSQSTHVPPTFGSGTKLEIK	–	–	–	3.5 nM	~8	binds	–	–
Anti-hPG MAb 16 (antibody, V domains shown, Mouse IgG1, hybridoma 1E9D9B6, raised against immunogen N2; also called 1E9D9B6) VH: QVQLQQSGAELVKPGASVKLSCKASGYTFTSYYMYWVKQRPGQGLEWIGEINPSNGGTNFNEKFKSKATLTVDKSSSTAYMQLSSLTSEDSAVYYCTRGGYYPFDYWGQGTTLTVSS VL: not shown	58 % of control	61 % of control	–	0.2 nM and 0.278 nM	~2	–	–	–
Anti-hPG MAb 8 (antibody, V domains shown, Mouse IgG1, hybridoma 1C10D3B9, raised against immunogen C1; also called 1C10D3B9) VH: EVQLVESGGGLVKPGGSLKLSCAASGFTFTTYAMSWVRQTPEKRLEWVATISSGGTYTYYPDSVKGRFTISRDNAKNALYLQMSSLRSEDTAMYYCATQGNYSLDFWGQGTSLTVSS VL: DIVMTQAASSNPVTLGTSASISCRSSKSLRHTKGITFLYWYLQKPGQSPQLLIYQMSNLASGVPDRFSSSGSGTDFTLRISRVEAEDLGVYYCAQNLELPLTFGAGTKLELK	40 % of control	42 % of control	62 % of control	0.1 nM and 0.108 nM	–	–	148 % of control	–
Anti-hPG MAb 3 (antibody, V domains shown, Mouse IgG1, hybridoma 6B5B11C10, raised against immunogen N2; also called 6B5B11C10) VH: EVQLQQSGTVLARPGASVKMSCKASGYIFTSYWVHWVKQRPGQGLEWIGGFYPGNSDSRYNQKFKGKATLTAVTSASTAYMDLSSLTNEDSAVYFCTRRDSPQYWGQGTTLTVSS VL: DVLMTQTPLSLPVSLGDQASISCRSSQSIVHSNGNTYLEWYLQKPGQSPKLLIYKVSNRFSGVPDRFSGSGSGTDFTLKISRLEAEDLGVYYCFQGSHVPFTFGGGTKLEIK	–	–	–	6.4 nM	–	binds	–	~4000
